According to patent publication US20210403506A1 (XDCEXPLORER SHANGHAI, published 2021):
Numbered stars: 1 amine (or outer) side, 2 acyl side, 3 side chain; on linkers, the order of the positions; unused ones are H or OH. Square brackets hold non-standard residues; d marks the D form. Primed or numbered codes have the meaning given here. Ends that are not written are not given here. * marks the point of attachment. TP5C = (S)-4,5,6,7-tetrahydrothieno[2,3-c]pyridine-5-carboxylic acid, O=C([C@@H]1Cc2ccsc2CN1[*:1])[*:2]; TP6C = (S)-4,5,6,7-tetrahydrothieno[2,3-c]pyridine-6-carboxylic acid, O=C([C@@H]1Cc2ccsc2CN1[*:1])[*:2]; Diphenylacetyl = O=C(C(c1ccccc1)c1ccccc1)*; dNMeY = CN[C@H](Cc1ccc(O)cc1)C(=O)O; Hydrocinnamoyl = O=C(CCc1ccccc1)*; 3‑phenylpropyl = c1ccc(CCC*)cc1; Tic = O=C(O)[C@@H]1Cc2ccccc2CN1; NMeL = CN[C@@H](CC(C)C)C(=O)O; NMeS = CN[C@@H](CO)C(=O)O; Nle = CCCC[C@H](N)C(=O)O; Nva = CCC[C@H](N)C(=O)O; Thz′ = not defined here

B1: YW-78 (peptide)
peptide: Diphenylacetyl-[dY]FLP[dS]QF[dA][Tic]S-OH
SMILES: CC(C)C[C@H](NC(=O)[C@H](Cc1ccccc1)NC(=O)[C@@H](Cc1ccc(O)cc1)NC(=O)C(c1ccccc1)c1ccccc1)C(=O)N1CCC[C@H]1C(=O)N[C@H](CO)C(=O)N[C@@H](CCC(N)=O)C(=O)N[C@@H](Cc1ccccc1)C(=O)N[C@H](C)C(=O)N1Cc2ccccc2C[C@H]1C(=O)N[C@@H](CO)C(=O)O
B2: YW-158 (peptide)
peptide: [dY]FLP[dS]QF[dA][TP5C]S-OH
modifications: N-terminus assumed
SMILES: CC(C)C[C@H](NC(=O)[C@H](Cc1ccccc1)NC(=O)[C@H](N)Cc1ccc(O)cc1)C(=O)N1CCC[C@H]1C(=O)N[C@H](CO)C(=O)N[C@@H](CCC(N)=O)C(=O)N[C@@H](Cc1ccccc1)C(=O)N[C@H](C)C(=O)N1Cc2sccc2C[C@H]1C(=O)N[C@@H](CO)C(=O)O
B3: YW-159 (peptide)
peptide: [dY]FLP[dS]QF[dA][TP6C]S-OH
modifications: N-terminus assumed
SMILES: CC(C)C[C@H](NC(=O)[C@H](Cc1ccccc1)NC(=O)[C@H](N)Cc1ccc(O)cc1)C(=O)N1CCC[C@H]1C(=O)N[C@H](CO)C(=O)N[C@@H](CCC(N)=O)C(=O)N[C@@H](Cc1ccccc1)C(=O)N[C@H](C)C(=O)N1Cc2sccc2C[C@H]1C(=O)N[C@@H](CO)C(=O)O
B4: YW-189 (peptide)
peptide: [dY]FLP[dS]QF[dA][Tic]S-NH2
modifications: N-terminus assumed
SMILES: CC(C)C[C@H](NC(=O)[C@H](Cc1ccccc1)NC(=O)[C@H](N)Cc1ccc(O)cc1)C(=O)N1CCC[C@H]1C(=O)N[C@H](CO)C(=O)N[C@@H](CCC(N)=O)C(=O)N[C@@H](Cc1ccccc1)C(=O)N[C@H](C)C(=O)N1Cc2ccccc2C[C@H]1C(=O)N[C@@H](CO)C(N)=O
B5: YW-71 (peptide)
peptide: Hydrocinnamoyl-[dY]FLP[dS]QF[dA][Tic]S-OH
SMILES: CC(C)C[C@H](NC(=O)[C@H](Cc1ccccc1)NC(=O)[C@@H](Cc1ccc(O)cc1)NC(=O)CCc1ccccc1)C(=O)N1CCC[C@H]1C(=O)N[C@H](CO)C(=O)N[C@@H](CCC(N)=O)C(=O)N[C@@H](Cc1ccccc1)C(=O)N[C@H](C)C(=O)N1Cc2ccccc2C[C@H]1C(=O)N[C@@H](CO)C(=O)O
B6: YW-74 (peptide)
peptide: {3‑phenylpropyl}-[dY]FLP[dS]QF[dA][Tic]S-OH
SMILES: CC(C)C[C@H](NC(=O)[C@H](Cc1ccccc1)NC(=O)[C@@H](Cc1ccc(O)cc1)NCCCc1ccccc1)C(=O)N1CCC[C@H]1C(=O)N[C@H](CO)C(=O)N[C@@H](CCC(N)=O)C(=O)N[C@@H](Cc1ccccc1)C(=O)N[C@H](C)C(=O)N1Cc2ccccc2C[C@H]1C(=O)N[C@@H](CO)C(=O)O

These binders were tested against T1, human Chemokine like receptor 1 (human, UniProt Q99788 1-373) (assay: cell-based or functional assay).
T1 sequence (looked up): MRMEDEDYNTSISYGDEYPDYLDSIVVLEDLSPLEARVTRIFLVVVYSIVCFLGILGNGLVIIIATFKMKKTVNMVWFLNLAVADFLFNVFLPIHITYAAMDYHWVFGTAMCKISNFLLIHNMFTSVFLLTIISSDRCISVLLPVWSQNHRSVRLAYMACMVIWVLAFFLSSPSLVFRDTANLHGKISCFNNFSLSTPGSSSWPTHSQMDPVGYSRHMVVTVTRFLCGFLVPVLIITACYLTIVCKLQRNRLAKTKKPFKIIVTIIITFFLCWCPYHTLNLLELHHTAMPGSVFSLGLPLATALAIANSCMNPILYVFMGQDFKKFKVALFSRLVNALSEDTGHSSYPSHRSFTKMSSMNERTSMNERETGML

Row | EC50 (µM), activation of Tango CMKLR1-bla U2OS cells | Binder
1 | 0.026 µM | B1
2 | 0.065 µM | B2
3 | 0.053 µM | {4‑biphenylacetyl}-[dY]FLP[dS]QF[dA][Tic]S-OH [YW-77]
4 | 0.0047 µM | {3,5‑dihydroxybenzoyl}-[dY]FLP[dS]QF[dA][Tic]S-OH [YW-79]
5 | 0.018 µM | B3
6 | 0.039 µM | [dY]F[Nva]P[dS]QF[dA][Tic]S [YW-196]
7 | 0.043 µM | {5‑phenylpentanoyl}-[dY]FLP[dS]QF[dA][Tic]S-OH [YW-76]
8 | 0.0013 µM | [dNMeY]F[NMeL][Thz′][dS]QF[dA][Tic][NMeS] (reading uncertain) [YW-124]
9 | 0.028 µM | phenethylcarbamothioyl-[dY]FLP[dS]QF[dA][Tic]S-OH [YW-73]
10 | 0.0068 µM | B4
11 | 0.0091 µM | {2,3,4‑trihydroxybenzoyl}-[dY]FLP[dS]QF[dA][Tic]S-OH [YW-129]
12 | 0.01 µM | {2,3‑dihydroxybenzoyl}-[dY]FLP[dS]QF[dA][Tic]S-OH [YW-127]
13 | 0.031 µM | B5
14 | 0.045 µM | phenethylcarbamoyl-[dY]FLP[dS]QF[dA][Tic]S-OH [YW-72]
15 | 0.0062 µM | B6
16 | 0.01 µM | [dY]F[Nle]P[dS]QF[dA][Tic]S [YW-197]
17 | 0.02 µM | {2,6‑dihydroxybenzoyl}-[dY]FLP[dS]QF[dA][Tic]S-OH [YW-128]
18 | 0.05 µM | {4‑phenylbutanoyl}-[dY]FLP[dS]QF[dA][Tic]S-OH [YW-75]

Target: T1, human Chemokine like receptor 1
Assay: cell-based or functional assay
Remark: another data set of the same source

Row | EC50 (µM), activation of Tango CMKLR1-bla U2OS cells | Binder
19 | 0.019 µM | [dY]FLP[dS]QF[dA][Tic]S-OH [YW-3]
